Data from doi:10.1101/2024.05.21.594841 (bioRxiv, 2024).

Legend:
Assay in all cases: split reporter
Eug1p = molecular target: T1, Eug1p (S. cerevisiae, UniProt P32474 30-517)
T1 sequence: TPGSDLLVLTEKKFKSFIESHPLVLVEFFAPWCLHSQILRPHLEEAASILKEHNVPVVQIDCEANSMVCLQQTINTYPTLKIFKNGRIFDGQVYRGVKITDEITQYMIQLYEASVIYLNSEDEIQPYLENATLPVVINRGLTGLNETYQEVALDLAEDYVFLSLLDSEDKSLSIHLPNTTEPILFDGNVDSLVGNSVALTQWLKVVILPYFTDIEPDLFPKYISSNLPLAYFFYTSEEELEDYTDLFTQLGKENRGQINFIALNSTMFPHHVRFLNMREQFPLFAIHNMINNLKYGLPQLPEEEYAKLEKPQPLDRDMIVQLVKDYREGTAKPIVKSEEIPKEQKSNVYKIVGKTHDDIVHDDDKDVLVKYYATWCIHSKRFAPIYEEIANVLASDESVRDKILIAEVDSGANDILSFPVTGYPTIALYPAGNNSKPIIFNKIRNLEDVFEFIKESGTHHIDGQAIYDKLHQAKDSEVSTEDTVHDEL

Pdi1p = molecular target: T2, Pdi1p (S. cerevisiae, UniProt P17967 29-522)
T2 sequence: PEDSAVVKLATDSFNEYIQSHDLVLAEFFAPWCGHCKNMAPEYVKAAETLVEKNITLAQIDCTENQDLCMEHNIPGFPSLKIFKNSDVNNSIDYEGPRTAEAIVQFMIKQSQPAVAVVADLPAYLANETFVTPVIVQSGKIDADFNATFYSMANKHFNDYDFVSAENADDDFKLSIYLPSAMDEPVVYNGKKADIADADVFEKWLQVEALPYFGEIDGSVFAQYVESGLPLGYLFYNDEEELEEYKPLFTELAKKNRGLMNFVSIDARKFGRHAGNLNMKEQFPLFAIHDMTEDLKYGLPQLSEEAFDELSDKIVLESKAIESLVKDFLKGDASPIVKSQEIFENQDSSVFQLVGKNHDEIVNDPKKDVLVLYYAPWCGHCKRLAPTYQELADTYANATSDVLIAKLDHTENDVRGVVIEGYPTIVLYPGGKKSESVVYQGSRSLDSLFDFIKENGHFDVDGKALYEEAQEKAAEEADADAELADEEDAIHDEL

Sed4p = molecular target: T3, Sed4p (S. cerevisiae, UniProt P25365 1-1065)
T3 sequence: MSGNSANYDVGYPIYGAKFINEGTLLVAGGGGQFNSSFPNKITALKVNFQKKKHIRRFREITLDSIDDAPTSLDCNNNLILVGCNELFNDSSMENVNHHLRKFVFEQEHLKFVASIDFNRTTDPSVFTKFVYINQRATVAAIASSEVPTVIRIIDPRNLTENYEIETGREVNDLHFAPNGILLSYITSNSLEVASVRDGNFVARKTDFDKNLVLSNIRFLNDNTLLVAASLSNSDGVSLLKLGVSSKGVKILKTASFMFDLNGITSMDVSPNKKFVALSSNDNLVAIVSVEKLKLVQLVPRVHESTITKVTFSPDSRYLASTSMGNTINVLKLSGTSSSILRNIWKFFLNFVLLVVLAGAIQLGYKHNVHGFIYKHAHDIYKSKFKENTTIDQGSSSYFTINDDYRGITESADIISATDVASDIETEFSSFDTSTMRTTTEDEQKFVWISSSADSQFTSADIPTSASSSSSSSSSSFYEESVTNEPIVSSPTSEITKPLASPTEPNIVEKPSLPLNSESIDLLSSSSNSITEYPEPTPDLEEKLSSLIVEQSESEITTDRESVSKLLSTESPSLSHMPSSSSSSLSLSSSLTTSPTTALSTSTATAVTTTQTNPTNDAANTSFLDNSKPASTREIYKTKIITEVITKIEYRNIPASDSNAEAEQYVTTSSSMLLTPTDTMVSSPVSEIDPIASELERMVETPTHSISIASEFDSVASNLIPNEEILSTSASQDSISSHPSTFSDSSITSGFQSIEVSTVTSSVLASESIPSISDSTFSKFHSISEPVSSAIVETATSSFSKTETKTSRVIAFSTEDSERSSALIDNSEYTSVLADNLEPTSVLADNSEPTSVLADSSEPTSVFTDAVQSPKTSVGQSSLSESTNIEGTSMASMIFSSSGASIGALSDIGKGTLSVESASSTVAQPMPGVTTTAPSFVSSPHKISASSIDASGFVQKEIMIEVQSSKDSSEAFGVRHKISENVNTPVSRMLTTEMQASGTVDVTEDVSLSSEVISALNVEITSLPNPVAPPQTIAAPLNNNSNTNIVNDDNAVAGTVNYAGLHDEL

Measured: normalized interacting score

B1: Lhs1p (natural protein)
chain: AVLGVDYGQQNIKAIVVSPQAPLELVLTPEAKRKEISGLSIKRLPGYGKDDPNGIERIYGSAVGSLATRFPQNTLLHLKPLLGKSLEDETTVTLYSKQHPGLEMVSTNRSTIAFLVDNVEYPLEELVAMNVQEIANRANSLLKDRDARTEDFVNKMSFTIPDFFDQHQRKALLDASSITTGIEETYLVSEGMSVAVNFVLKQRQFPPGEQQHYIVYDMGSGSIKASMFSILQPEDTTQPVTIEFEGYGYNPHLGGAKFTMDIGSLIENKFLETHPAIRTDELHANPKALAKINQAAEKAKLILSANSEASINIESLINDIDFRTSITRQEFEEFIADSLLDIVKPINDAVTKQFGGYGTNLPEINGVILAGGSSRIPIVQDQLIKLVSEEKVLRNVNADESAVNGVVMRGIKLSNSFKTKPLNVVDRSVNTYSFKLSNESELYDVFTRGSAYPNKTSILTNTTDSIPNNFTIDLFENGKLFETITVNSGAIKNSYSSDKCSSGVAYNITFDLSSDRLFSIQEVNCICQSENDIGNSKQIKNKGSRLAFTSEDVEIKRLSPSERSRLHEHIKLLDKQDKERFQFQENLNVLESNLYDARNLLMDDEVMQNGPKSQVEELSEMVKVYLDWLEDASFDTDPEDIVSRIREIGILKKKIELYMDSAKEPLNSQQFKGMLEEGHKLLQAIETHKNTVEEFLSQFETEFADTIDNVREEFKKIKQPAYVSKALSTWEETLTSFKNSISEIEKFLAKNLFGEDLREHLFEIKLQFDMYRTKLEEKLRLIKSGDESRLNEIKKLHLRNFRLQKRKEEKLKRKLEQEKSRNNNETESTVINSADDKTTIVNDKTTESNPSSEEDILHDEL
> 40%: all assays above
